These results are taken from patent US20240327815A1.

Assay [1] addresses B.1.351 (Beta) SARS-CoV-2 spike protein, plate-coated (MSD) (SARS-CoV-2) (UniProt P0DTC2). The experiment in a line: MSD competition vs labelled ACE2.
The target in assay [2] is B.1.1.7 (Alpha) SARS-CoV-2 spike protein, plate-coated (MSD) (SARS-CoV-2) (UniProt P0DTC2). The experiment in a line: MSD competition vs labelled ACE2.
The target in assay [3] is P.1 (Gamma) SARS-CoV-2 spike protein, plate-coated (MSD) (SARS-CoV-2) (UniProt P0DTC2). Nature of the assay: MSD competition vs labelled ACE2.
The target in assay [4] is Delta SARS-CoV-2 spike protein, plate-coated (MSD) (SARS-CoV-2) (UniProt P0DTC2). Nature of the assay: MSD competition vs labelled ACE2.
In assay [5] the target is Omicron SARS-CoV-2 spike protein, plate-coated (MSD) (SARS-CoV-2) (UniProt P0DTC2). Nature of the assay: MSD competition vs labelled ACE2.
The target of assay [6] is Beta SARS-CoV-2 spike on pseudotyped lentivirus (SARS-CoV-2) (UniProt P0DTC2). Nature of the assay: cell-based or functional assay.
The target of assay [7] is Delta SARS-CoV-2 spike on pseudotyped lentivirus (SARS-CoV-2) (UniProt P0DTC2). Nature of the assay: cell-based or functional assay.
Assay [8] has as its target spike of live SARS-CoV-2 Delta variant (SARS-CoV-2) (UniProt P0DTC2). The experiment in a line: cell-based or functional assay.
Assay [9] concerns the target spike of live SARS-CoV-2 Beta variant (SARS-CoV-2) (UniProt P0DTC2). The experiment in a line: cell-based or functional assay.
Assay [10] deals with Alpha SARS-CoV-2 spike on pseudotyped lentivirus (SARS-CoV-2) (UniProt P0DTC2). Nature of the assay: cell-based or functional assay.

REGEN-COV: the IC50 in assay [1] stood at 0.35 nM; in assay [2] it was 0.06 nM; in [3], 0.4 nM; in [4] it was 0.05 nM; in assay [5], 13.1 nM. Also, the Pseudovirus Neutralization (IC50, nM) in assay [6] was determined as 4.9 nM; in [7], 0.05 nM; in assay [10], 0.06 nM. In assay [7], this substance registered a Pseudovirus neutralization IC50 of 0.05 nM. Also, the Live virus neutralization (MN50, nM) in [8] was determined as 0.05 nM; in assay [9] it was 0.08 nM. The same substance showed a Live virus neutralization MN50 in assay [8] of 0.05 nM.
